A word on the EC50: it is the concentration needed to bring the measured effect to its halfway point. As a reminder, the Kd is the equilibrium constant for the complex coming apart. A high value points to lower affinity. A word on the koff: it is the first-order rate constant of dissociation. Read a low koff as a long-lived complex. By kon is commonly meant the rate constant with which the complex forms. By IC50 is commonly meant the midpoint of a concentration-inhibition curve. The low end stands for greater potency in that assay, the high end for weaker potency in that assay.

Here are results for 17 molecules from patent US20230399384A1 (University of Texas, published 2023).

Substitutions are numbered along the chain they refer to.

In assay [1] the target is T1, sCoV-RBD (Fc-tagged RBD of SARS-CoV S protein) (SARS-CoV; human, UniProt P59594 306-527). Description: phage ELISA, scFv on phage. A general note: ELISA stands for enzyme-linked immunosorbent assay.
The target in assay [2] is T2, sCoV2-RBD (Fc-tagged RBD of SARS-CoV-2 S protein) (SARS-CoV-2; human, UniProt P0DTC2 319-541). Nature of the assay: ELISA titration on coated sCoV2-RBD.
The target of a further assay is S protein of SARS-CoV (SARS-CoV, UniProt P59594 14-1195). Nature of the assay: ELISA, purified IgG1 on coated S protein.
Assay [3] deals with SARS-CoV-2 S protein on live SARS-CoV-2-mNG reporter virus (SARS-CoV-2, UniProt P0DTC2 14-1273). Nature of the assay: cell-based or functional assay.
Assay [4] has as its target SARS-CoV-2 RBD protein (Sino Biological, Cat: 40592-V08B) (SARS-CoV-2, UniProt P0DTC2 319-541). Nature of the assay: BLI (Octet), mAb on Protein A sensor. Background: Biolayer interferometry detects binding as a change in optical thickness at a sensor tip.
The target of assay [5] is T2, sCoV2-RBD (Fc-tagged RBD of SARS-CoV-2 …). Nature of the assay: BLI (Octet) blocking of ACE2 binding to captured sCoV2-RBD.
Assay [6] addresses T1, sCoV-RBD (Fc-tagged RBD of SARS-CoV S …). Nature of the assay: ELISA, purified IgG1 on coated RBD protein.

B1: CoV2-24 (antibody, V domains shown)
VH: QVQLHQWGAGLLKPSETLSRTCAVYGGSFSGYYWTWIRQAPGKGLEWIGEINHGGSTRYNPSLESRVSISVDTSKKQFSLELRSVTAADTAIYYCARGLVGGGAFDIWGQGTMVTVSS
VL: NFMLTQPSSVSVAPGQTARITCGGDNIGSTGVHWYQQKPGQAPVLVVYDDTDRPSGIPERFSGSKSGNTAALTISGVEAGDEADFYCQVWDSSGHSYVFGTGTKVTVL
On to B1, for which the binding result is recorded as “no binding” in assay [1] and “no binding (tested: one concentration, not printed)” with S protein of SARS-CoV. Further, the EC50 in assay [2] was 29.7 nM.

B2: CoV2-14 (antibody, V domains shown)
VH: EVQLQQSGPGLVKPSQTLSLTCAISGDSVSSNSAAWNWIRQSPSRGLEWLGRTYYRSKWYNDYAVSVKSRITINPDTSKNQFSLQLNSVTPEDTAVYYCAREEQQLVHDYYYYGMDVWGQGTMVTVSS
VL: QAVVTQPASVSGSPGQSITISCTGTSSDIGAYNYISWYQQHPGKAPKLIIYEVSNRPSGISYRFSGSKSGNTASLTISGLQAEDEANYYCSSYAGSISFGGGTKVTVL
With B2, the “NC50 (neutralisation of reporter SARS-CoV-2, Vero E6 cells)” value (“NC50” below) in assay [3] stood at 0.46 µg/mL.

B3: CoV2-06 (antibody, V domains shown)
VH: QVELQESGPGLVKPSGTLSLTCAVSGGSISSNNWWTWVRQPPGKGLEWIGEIHHSGGTNYNPSLKSRVTMSVDKSKNQFSLNLYSVTAADTAVYYCTRDRAGGTYSGFDFWGQGTLVTVSS
VL: QAVVTQPASVSGSPGQSITISCTGTSSDVGGYNYVSWYQQHPGKAPKLMIYDVSNRPSGVSNRFSGSKSGNTASLTISGLQAEDEADYYCSSYTSSSTVVFGGGTKVTVL
For B3, the “NC50” value in assay [3] was 0.15 µg/mL.

B4: CoV2-28 (antibody, V domains shown)
VH: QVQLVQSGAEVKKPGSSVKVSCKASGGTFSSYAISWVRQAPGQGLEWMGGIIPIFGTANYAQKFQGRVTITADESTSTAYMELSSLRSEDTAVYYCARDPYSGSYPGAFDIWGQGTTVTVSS
VL: B3 VL with S91N, S95R, V99S, G103T, K106Q, V107L
Consider B4, for which the binding result is on record as “no binding” in assay [1] and “no binding (tested: one concentration, not printed)” with S protein of SARS-CoV. Moreover, in assay [2], the response was half-maximal at 130 nM (EC50).

B5: CoV2-05 (antibody, V domains shown)
VH: EVQLVESGGGVARPGGSLRLSCAASGFTFDDYGMSWVRQVPGKGLEWVAGINWNGERIGYADSVKGRFTISRDNAKNSLYLQMNSLRAEDTALYYCARPSGDYVAWYFNLWGRGTLVTVSS
VL: QAALTQPRSVSGSPGQSVTISCTGTGSDVGPYKYVSWYQQHPGKAPKLMIYDVNERPSGVPDRFSGSKSGNTASLTISGLQAEDEADYYCGSYAGNNKWVFGGGTKLTVL
Regarding B5, the binding result in assay [1] was “no binding”. In assay [2], this molecule came in with an EC50 of 7.82 nM. In addition, in assay [4], the Kd was 7.16 nM, the koff is 0.000602 s⁻¹ and the kon stood at 84100 M⁻¹ s⁻¹. Also, the binding result in the assay with S protein of SARS-CoV is “no binding (tested: one concentration, not printed)”. In addition, the IC50 in assay [5] amounted to 4.18 µg/mL.

B6: CoV2-26 (antibody, V domains shown)
VH: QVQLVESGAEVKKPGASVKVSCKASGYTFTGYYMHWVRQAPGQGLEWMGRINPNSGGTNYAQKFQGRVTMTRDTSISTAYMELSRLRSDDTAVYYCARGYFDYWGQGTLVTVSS
VL: QSALTQPPSASGTPGQRVTISCSGSSSNIGSNSVNWYQQVPGTAPKLLIYANDHRPSGVPDRFSGSKSGTSASLAISGLQSEDEADYYCAAWDNSLKGVVFGGGTKVTVL
Consider B6, for which the “NC50” value in assay [3] came out at 0.41 µg/mL.

B7: CoV2-09 (antibody, V domains shown)
VH: QVQLHQWGAGLLKPSETLSRTCAVYGGSFSGYYWTWIRQAPGKGLEWIGEINHGGSTRYNPSLESRVSISVDTSKKQFSLELRSVTAADTAIYYCARGYDTNWYGDGYNWFDPWDRGTLVTVSS
VL: QSALTQDPSVSVALGQTVRITCQGDSLRGSFASWYRQKPGQAPVLVIFGINNRPSGVPDRFSGSSSGNTASLTITGAQAEDEADYYCNSRESNSNRILFGGGTKVTVL
B7: in assay [3], the “NC50” value came out at 0.66 µg/mL.

B8: CoV2-31 (antibody, V domains shown)
VH: B7 VH with H5Q, Y33S, R58N, I92V, D115G, R116Q
VL: QAVVTQPLSVSVALGQTAKIPCGGNNIGRKSVHWYQQKPGQAPVLVIYRDNNRPSGIPERFSGSNSGNTATLTISRAQAGDEADYYCQVWDSNTGVFGTGTKVTVL
In the case of B8, the EC50 in assay [2] was 58.1 nM. Besides, the binding result was “no binding (tested: one concentration, not printed)” with S protein of SARS-CoV and “no binding (tested: one concentration, not printed)” in assay [6].

B9: CoV2-34 (antibody, V domains shown)
VH: B7 VH with Y33S, I51V, S56K, R58N, V67L, K76N, I92V, D115G, R116Q, T121S
VL: DIQMTQSPSSLSASVGDRVTITCRASQKIDNFLNWYQQKPGKAPKLLIHGASNLQGGVSSRFSGSRSGTDFTLTITNLQPEDFATYYCQQSYNTPITFGQGTRLEIK
B9 had an EC50 in assay [2] of 6.67 nM. Also, the binding result in the assay with S protein of SARS-CoV is “no binding (tested: one concentration, not printed)”; in assay [6], “no binding (tested: one concentration, not printed)”.

B10: CoV2-16 (antibody, V domains shown)
VH: B7 VH
VL: QAVVTQPPSVSGTPGQRVTISCSGSSSSIGSNTVHWYQHLPGTAPKLLMYNNNERPSGVPARFSGSKSGTSASLVITGLQADDEAEYYCQSYDTGLSGHVFGSGTELTVL
Turning to B10, in assay [3], the “NC50” value stood at 0.82 µg/mL.

B11: 07 (antibody, V domains shown)
VH: EVQLVESGGGVFQPGRSLRLSCAASGFTFSDFGMHWVRQAPGKGLEWVAVTSHDGSSKFYADSVKGRFTVSRDNSKNKLYLEMNSLRVEDSAVYYCAKDSDNGYDADFFDYWGQGTLVTVSS
VL: not shown
notes: also called CoV2-07; phage clone 07
Turning to B11, the binding result in assay [1] is listed as “no binding”.

B12: CoV2-03 (antibody, V domains shown)
VH: QVQLVESGAEMKKPGASVKVSCKTSGYTFTNSYIHWVRQAPGQGLEWMGWINPISGGTNYAQKFQGRVTMTRDTSINTAYMELSRLRSDDTAVYYCARDRGDYDYGWGTSPFYFDYWGQGTLVTVSS
VL: not shown
As to B12, the binding result is recorded as “no binding” in assay [1] and “no binding (tested: one concentration, not printed)” with S protein of SARS-CoV. The same molecule gave an EC50 in assay [2] of 3.35 nM. In assay [5], this molecule displayed an IC50 of 14.8 µg/mL.

B13: CoV2-02 (antibody, V domains shown)
VH: B12 VH with L4M, E6Q, T124S
VL: AIQMTQSPSSLSASVGDRVTITCRASQPISKYLNWYQQKPGKAPKLLIYAASSLQSGVPSSFSGSGFGTDFTLTISNLQPEDFATYYCQQSNGIPLTFGGGTKVDIK
As for B13, the binding result in assay [1] is reported as “no binding”. In assay [2], the midpoint of the response, the EC50, lay at 0.47 nM. In assay [4], this molecule came in with a Kd of 7.85 nM, a koff of 0.000499 s⁻¹ and a kon of 63500 M⁻¹ s⁻¹. The binding result in the assay with S protein of SARS-CoV is given as “no binding (tested: one concentration, not printed)”. The molecule also displayed an IC50 in assay [5] of 17.7 µg/mL.

B14: CoV2-19 (antibody, V domains shown)
VH: B12 VH with E6Q
VL: AIQLTQSPSSLSASVGDRVTITCRTSHTVNSYLNWYQQEPGKAPKLLIYAASNLQSGVPSRFSGSGSGTDFSLTIHNLQPEDFATYYCQQSYRTPLTFGQGTKVDIK
On to B14, for which the binding result in assay [1] is reported as “no binding”. The molecule also returned a concentration for a half-maximal effect (EC50) in assay [2] of 5.02 nM. In assay [4], this molecule registered a Kd of 138 nM, a dissociation rate constant (koff) of 0.00137 s⁻¹ and a kon of 9870 M⁻¹ s⁻¹. In addition, in the assay with S protein of SARS-CoV, the binding result is on record as “no binding (tested: one concentration, not printed)”. This molecule displayed an IC50 in assay [5] of 14.5 µg/mL.

B15: CoV2-22 (antibody, V domains shown)
VH: B12 VH with E6Q
VL: DVQMTQSPSSLSASVGDRVTITCRASQSISSYLNWYQQKPGKAPKLLIYGASSLESGVPSRFSGGGSGTDFTLTISSLQPEDFASYYCQQSYSIPFTFGPGTTVDIK
On to B15, for which the binding result in assay [1] is “no binding”; with S protein of SARS-CoV it was “no binding (tested: one concentration, not printed)”. Further, in assay [2], the EC50 was found to be 3.41 nM.

B16: CoV2-23 (antibody, V domains shown)
VH: QVQLVESGGGLVQPGRSLRLSCAASGFTFDDYAMHWVRQAPGKGLEWVSGISWNSGSIGYADSVKGRFTISRDNAKNSLYLQMNSLRAEDTALYYCAKDMDIWFGGGLDYWGQGTLVSVSS
VL: DVQMTQSPSSVSASVGDRVTITCRASEGIGNWLAWYQQKPGKAPKLLIYEASSLQSGVPSRFSGSGSGADFTLTISSLQPEDFGTYYCLQANSFPITFGRGTKLEIK
As for B16, a half-maximal response in assay [2] (EC50) required 1.04 nM.

B17: CoV2-13 (antibody, V domains shown)
VH: QVQLQQSGAEVKKPGSSVKVSCKASGGNFRSHTFSWVRQAPGQGLEWMGEIMPRFGATNYAQKFQGRVTITADESTGTTYMELSSLKSHDTAVYFCAADLGSGRKFDSWAQGTLVSVSS
VL: NIQMTQSPSSLSASVGDRVTITCRASQGIGSDLGWYQQRPGKAPKRLIYAASSLQSGVPSRFSGSGSGTEFTLTISSLQPEDFATYYCLQHNSYPLTFGQGTKVEIK
Regarding B17, in assay [2], the response was half-maximal at 0.17 nM (EC50). In assay [4], this molecule had a Kd of 50.7 nM, a koff of 0.00103 s⁻¹ and a kon of 20300 M⁻¹ s⁻¹. Further, in assay [5], the IC50 is 2.29 µg/mL.
